Each block holds one binder with its values, some of them ahead of it.
Biological target: T1, myc-tagged xFZD8 CRD (cysteine-rich domain of Xenopus Frizzled-8) (Xenopus, UniProt O93274 24-144)
T1 sequence (looked up): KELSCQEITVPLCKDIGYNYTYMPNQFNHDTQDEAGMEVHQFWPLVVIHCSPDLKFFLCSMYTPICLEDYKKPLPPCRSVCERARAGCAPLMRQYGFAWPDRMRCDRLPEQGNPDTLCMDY
Assay: co-IP

fold reduction of apparent CRD binding strength against the wild type: ~10 fold
B1: human Wnt3a lacking the acylation site (hWnt3a^S209A) (ligand, UniProt P56704 19-352, looked up)
chain: SYPIWWSLAVGPQYSSLGSQPILCASIPGLVPKQLRFCRNYVEIMPSVAEGIKIGIQECQHQFRGRRWNCTTVHDSLAIFGPVLDKATRESAFVHAIASAGVAFAVTRSCAEGTAAICGCSSRHQGSPGKGWKWGGCSEDIEFGGMVSREFADARENRPDARSAMNRHNNEAGRQAIASHMHLKCKCHGLAGSCEVKTCWWSQPDFRAIGDFLKDKYDSASEMVVEKHRESRGWVETLRPRYTYFKVPTERDLVYYEASPNFCEPNPETGSFGTRDRTCNVSSHGIDGCDLLCCGRGHNARAERRREKCRCVFHWCCYVSCQECTRVYDVHTCK

fold more efficient co-immunoprecipitation than xWnt8^S187A: ~10 fold
B2: wild-type Xenopus Wnt8 (xWnt8^WT) (ligand, UniProt P28026 23-358, looked up)
chain: AWSVNNFLMTGPKAYLTYSASVAVGAQNGIEECKYQFAWERWNCPESTLQLATHNGLRSATRETSFVHAISSAGVMYTLTRNCSMGDFDNCGCDDSRNGRIGGRGWVWGGCSDNAEFGERISKLFVDGLETGQDARALMNLHNNEAGRLAVKETMKRTCKCHGISGSCSIQTCWLQLAEFRDIGNHLKIKHDQALKLEMDKRKMRSGNSADNRGAIADAFSSVAGSELIFLEDSPDYCLKNISLGLQGTEGRECLQSGKNLSQWERRSCKRLCTDCGLRVEEKKTEIISSCNCKFHWCCTVKCEQCKQVVIKHFCARRERDSNMLNTKRKNRGHRR
modifications: acylation site S187 (palmitoleoyl chain), as the paper says of the wild type

— article PMC6429962 (Cell reports, 2019)
